Series [1] concerns the target T1, Fzf1-N117 (Saccharomyces cerevisiae, UniProt P32805 1-117).
T1 sequence: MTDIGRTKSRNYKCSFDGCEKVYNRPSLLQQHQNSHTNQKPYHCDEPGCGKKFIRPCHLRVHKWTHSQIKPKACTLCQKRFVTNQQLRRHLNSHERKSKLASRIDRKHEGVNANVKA
The experiment in a line: EMSA; poly dI-dC, BSA; EMSA: 0.1 pmol dsDNA probe, 2 ng BSA, 0.5 ug poly dI-dC (added after incubation), EMSA binding buffer (composition, salt and pH not given), 20 min on ice, 6% native PAGE; protein 0-150 nM. The following applies: protein: recombinant; tags: N-terminal GST removed by PreScission protease; blunt. A general note: Mobility shift assays separate free from complexed probe on a gel.

The target of series [2] is T2, Fzf1 (Saccharomyces cerevisiae, UniProt P32805 1-299).
T2 sequence: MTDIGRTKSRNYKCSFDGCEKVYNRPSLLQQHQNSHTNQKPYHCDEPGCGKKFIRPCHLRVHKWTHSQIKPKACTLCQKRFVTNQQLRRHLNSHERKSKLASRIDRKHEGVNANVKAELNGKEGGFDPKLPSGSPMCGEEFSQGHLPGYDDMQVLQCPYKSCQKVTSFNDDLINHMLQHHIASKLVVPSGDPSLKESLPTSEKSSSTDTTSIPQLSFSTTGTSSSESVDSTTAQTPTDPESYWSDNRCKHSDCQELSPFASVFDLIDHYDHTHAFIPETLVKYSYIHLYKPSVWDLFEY
Described as above. Conditions: protein: recombinant; tags: GST fusion from pGEX-6p-1 (pGEX-FZF1); tag removal by PreScission described only for N117; blunt.

What is called Kd is the constant that tells how readily two partners part at equilibrium.

B1: SSU1-CS2 (dsDNA)
DNA 1: GAAAAAAAAATGATAGTTTGCAGGAAG
DNA 2: CTTCCTGCAAACTATCATTTTTTTTTC
Consider B1, for which the equilibrium dissociation constant (Kd) is about 30 nM in series [1] and about 35 nM in series [2].

The values are drawn from paper PMC12843318, “Zinc-Finger 5 Is an Activation Domain in the Saccharomyces cerevisiae Stress-Responsive Transcription Factor Fzf1”.
